Results: FireProtDB (doi:10.1021/acs.biochem.7b00571)

B1: Salicylic acid-binding protein 2, Q6RYA0 (parent)
chain: MKEGKHFVLVHGACHGGWSWYKLKPLLEAAGHKVTALDLAASGTDLRKIEELRTLYDYTLPLMELMESLSADEKVILVGHSLGGMNLGLAMEKYPQKIYAAVFLAAFMPDSVHNSSFVLEQYNERTPAENWLDTQFLPYGSPEEPLTSMFFGPKFLAHKLYQLCSPEDLALASSLVRPSSLFMEDLSKAKYFTDERFGSVKRVYIVCTEDKGIPEEFQRWQIDNIGVTEAIEIKGADHMAMLCEPQKLCASLLEIAHKYN

Variants of: B1
Settings: Nicotiana tabacum; pH 7.2; 4 °C; Urea; Fluorescence; BES; reversible: yes; structure 1Y7I; whole UniProt chain shown

Variant | denaturant midpoint (higher = more stable) [M]
S111G | 1.7
S111P | 1.7
V227P | 1.8
K247E | 1.1
E244K | 3
L60R | 2.7
C243S | 2.1
L65F | 3.8
A172V | 2.3
A189S | 2.5
A189N | 2.6
Q221M | 2.7
C164S | 0.9
G212C | 3.5
A250K | 2
S115A | 2.4
S115P | 1.9
K188R | 2.5
Q162H | 2.4
N114L | 2

Variant | denaturant midpoint (higher = more stable) [M]
N114G | 2.5
I225T | 1.5
E144M | 2
E144Y | 2.4
A71P | 1.9
L46P | 2.4
Y94F | 2.2
S165P | 2.5
T228S | 1.9
A230V | 2.6
S251V | 2.2
G226P | 1.6
C249A | 2.1
S70P | 2.4
I231R | 1.9
G17A | 2.1
E215P | 3.2
S141P | 2.2
S141N | 1.8
F197Y | 2.2
